Experiments:
[1] = target: T1, human IP-10 (interferon gamma inducible protein 10) (human, UniProt P02778 22-98); assay: cell-based or functional assay
[2] = target: T1, human IP-10 (interferon gamma inducible …); assay: inhibition of 0.100 nM 125I-IP-10 binding to CXCR3-expressing 300.19 cells
Description: The cells were grown in RPMI media containing 10% FCS and G418 selection. Prior to use, the cells were washed twice with Hank's Balanced Salt Solution (HBSS) at 4° C. and adjusted to 4×10⁷ cells/ml. Glass fiber plates (Millipore MultiScreen®, Cat. #MAFBNOB50) were blocked with 200 μl of a 0.1% polyethyleneimine solution one day prior to the experiment. On the day of the study, the blocking buffer was aspirated by using a Millipore manifold. The plates were washed three times with 200 μl of binding buffer (50 mM HEPES, pH 7.2, 1 mM CaCl₂, 5 mM MgCl₂, 0.5% BSA). […] The plates were incubated on a plate shaker for 60 minutes at room temperature and washed three times with wash buffer (10 mM HEPES, pH 7.2, 0.5 M NaCl, 0.5% BSA) at a volume of 200 μl per wash. The plates were dried, 25 μl of scintillant was added and the plates were counted on a Wallac Microbeta Counter. Data were analyzed using Prism software and a KD was calculated.
Competition assays were run in a similar manner to the experiment described above. […] Lastly, 25 μl of cells at a density of 1×10⁶ cells per well were added and the plates were incubated on a plate shaker for 60 minutes at room temperature, washed and counted as described above. EC₅₀ values were calculated using Prism software. Kᵢ values (in nM) were determined using the formula: […]

T1 sequence (P02778 other isoform, or with tags, fused parts or gaps limits assumed): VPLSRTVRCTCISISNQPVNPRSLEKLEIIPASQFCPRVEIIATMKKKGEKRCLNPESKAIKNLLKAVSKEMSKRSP

B1: 1E1 human monoclonal antibody (antibody, V domains shown)
VH: QEQLVESGGNVVQPGRSLRLSCAASGFTFSTYGMHWVRQAPGKGLEWVAVIWYDGSDKYYADSVKDRFTVSKDNSKNTLYLQMNSLRAEDTAVYYCARNIAVADVAFDLWGQGTMVTVSS
VL: not shown
notes: Human IgG with kappa light chain from a hybridoma of transgenic mice
For B1, the “IC50 (nM) for HPBL: inhibition of IP-10-induced calcium flux in anti-CD3 activated human PBLs that express CXCR3” value [1] was 3.64 nM and the Ki [2] was 0.29 nM.

Source: US20050191293A1 (Bristol-Myers Squibb, published 2005)
